Test results from patent EP1878743A2, “Urotensin-II agonists and antagonists” (The Administrators of The Tulane Educational Fund, priority 2000, dated 2002).
Bridge positions count the residues as written; N and C are the ends. Square brackets hold non-standard residues; d marks the D form. Ends that are not written are not given here. Peptide text beside a SMILES is read from it. dDip = N[C@@H](C(=O)O)C(c1ccccc1)c1ccccc1; Phe(4-Cl) = N[C@@H](Cc1ccc(Cl)cc1)C(=O)O; Phe(4-F) = N[C@@H](Cc1ccc(F)cc1)C(=O)O; 2Nal = N[C@@H](Cc1ccc2ccccc2c1)C(=O)O; 3Pal = N[C@@H](Cc1cccnc1)C(=O)O; Tle = CC(C)(C)[C@H](N)C(=O)O; Nal = naphthylalanine

T1: U-II receptors (rat thoracic aorta tissue) (rat, UniProt P49684 1-386)
T1 sequence (looked up): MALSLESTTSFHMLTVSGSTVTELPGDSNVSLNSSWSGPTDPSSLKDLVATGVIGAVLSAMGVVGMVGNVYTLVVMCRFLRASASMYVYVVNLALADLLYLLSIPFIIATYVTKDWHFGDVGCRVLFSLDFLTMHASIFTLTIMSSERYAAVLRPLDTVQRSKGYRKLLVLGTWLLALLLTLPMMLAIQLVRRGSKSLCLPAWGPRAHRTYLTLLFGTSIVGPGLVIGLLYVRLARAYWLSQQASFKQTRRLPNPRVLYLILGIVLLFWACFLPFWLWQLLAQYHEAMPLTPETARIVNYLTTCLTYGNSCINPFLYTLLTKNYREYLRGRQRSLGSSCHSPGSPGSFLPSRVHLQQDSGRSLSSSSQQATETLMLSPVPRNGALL

T2: U-II receptors (Rattus norvegicus, UniProt P49684)
T2 construct: from tissue; host or cells: rat thoracic aorta (circular strips / rings)
T2 sequence (P49684 1-386): T1 sequence (looked up)

B1: Cpa-D-Cys-Tyr-D-Trp-Lys-Thr-Cys-Nal-NH2 (SEQ ID NO: 9) (peptide)
peptide: XXYXKTCX
modifications: Cpa (p-chlorophenylalanine) at 1; D-Cys at 2; D-Trp at 4; Nal (naphthylalanine) at 8; C-terminal amide

Target: U-II receptors (rat thoracic aorta tissue) (rat) (UniProt P49684)
Assay: cell-based or functional assay
Details: not given

Row | Molecule | IC50 against U-II-induced phasic contractions of circular rat thoracic aorta strips [nM]
1 | Cpa-c[D-Cys-Pal-D-Trp-Lys-Val-Cys]-Cpa-amide (SEQ ID NO: 4) (peptide) | 100

Target: T1, U-II receptors (rat thoracic aorta …)
Assay: cell-based or functional assay
Details: not given

Row | Molecule | IC50 against U-II-induced phasic contractions of circular rat thoracic aorta strips [nM]
2 | [Phe(4-Cl)][dC]FWKTCV-NH2 (disulfide 2-7 (inferred)) [Cpa-c[D-Cys-Phe-Trp-Lys-Thr-Cys]-Val-NH2 (SEQ ID NO: 5)] | 2

Target: T1, U-II receptors (rat thoracic aorta …)
Assay: cell-based or functional assay
Details: not given
Remark: another data set of the same source

Row | Molecule | IC50 (nM) against U-II Stimulation of Rat Aorta Phasic Contractions [nM]
3 | [Phe(4-Cl)][dC][3Pal]WKTC[Phe(4-Cl)]-NH2 (disulfide 2-7 (inferred)) [Cpa-D-Cys-Pal-Trp-Lys-Thr-Cys-Cpa-NH2 (SEQ ID NO: 11)] | 2
4 | B1 | 12
5 | [Phe(4-Cl)][dC][3Pal][dW]K[Tle]C[Nal]-NH2 (disulfide 2-7 (inferred)) [Cpa-D-Cys-Pal-D-Trp-Lys-Tie-Cys-Nal-NH2 (SEQ ID NO: 10)] | 10
6 | [Nal][dC]H[dW]KVC[dDip]-NH2 (disulfide 2-7 (inferred)) [Nal-D-Cys-His-D-Trp-Lys-Val-Cys-D-Dip-NH2 (SEQ ID NO: 6)] | 1800
7 | [Phe(4-F)][dC][3Pal][dW]KVC[Nal]-NH2 (disulfide 2-7 (inferred)) [4Fpa-D-Cys-Pal-D-Trp-Lys-Val-Cys-Nal-NH2 (SEQ ID NO: 7)] | 1090
8 | [Phe(4-F)][dC][3Pal][dW]K[Tle]C[Nal]-NH2 (disulfide 2-7 (inferred)) [4Fpa-D-Cys-Pal-D-Trp-Lys-Tle-Cys-Nal-NH2 (SEQ ID NO: 8)] | 100

Test system: U-II Stimulation of Rat Aorta Phasic Contractions
Assay: not given
Details: not given
Experimental: Example 2: Use of Rat Aorta Circular Strip for Assay U-II Antagonists
Male Sprague-Dawley rats (250-350 g), which had been quarantined for 5-7 days prior to the experiments, were sacrificed by decapitation (experiments were approved by the Advisory Committee For Animal Resources, Tulane University School of Medicine). The thoracic aorta was dissected, freed from connective tissue, and cut into rings of about 1.5 mm in width. The rings were suspended in a 15 ml organ bath containing high potassium Kreb's solution (9.15 g/L potassium chloride, 2.1 g/L sodium bicarbonate, 1.0 g/L glucose, 0.16 g/L potassium phosphate monobasic. 0.14 g/L magnesium sulfate (anhydr.), and 0.22 g/L calcium chloride (dihydr.))
Optimal tension was applied (0.2 g) to the tissues and the bath medium was maintained at 37°C and bubbled with a mixture of 95% O2/5% CO2. Prior to mounting in the organ bath, selected preparations were rubbed with a moistened cotton wool swab, in order to remove the endothelial cell layer, and the effect of this procedure was tested using an acetylcholine-relaxation test. (Gibson, A., Br. J. Pharmacol. 91:205 (1987)). The aorta rings were allowed to equilibrate for 90 min. at the optimal tensions. During the equilibration period, the bath solution was replaced every 15 min. Contractile responses of aortae rings to various concentrations of peptides were expressed in volts. Changes in arterial smooth muscle tension were recorded isometrically using a force-displacement transducer (Radnoti), and a AcqKnowledge ACK100 Version 3.2 (BIOPAC Systems, Inc., Santa Barbara, CA.)
In siliconized glass tubes, peptides were dissolved in dionized water at a concentration of 1 µg/1µL (stock solution) and then diluted 1:10 with sterile BSA-saline solution (0.1% BSA, fraction V, Sigma, St. Louis in 0.9% NaCl). All peptide solutions were prepared fresh directly before the experiments. Peptides in the concentration ranges of 10^-6 to 10^-12 M/L in a final volume of 16-80 µL were direcly introduced into the tested organ bath containing Krebs buffer continuously gassed with 95% O, and 5% CO2, and the aorta rings at an optimal resting tension (1 - 0.2g). Peptide-induced changes in tension of the aorta rings were recorded by force-displacement transducers and processed by the computer system BIOPAC Inc., as described above. Each ring was exposed to one peptide concentration only.
Various somatostatin (SRIF) antagonists were discovered to have the ability to block UII-induced phase contractions in the circular rat thoracic aorta strips. […] The polypeptide Cpa-c[D-Cys-Phe-Trp-Lys-Thr-Cys]-ValNH2 was also a strong U-II antagonist with an IC50 of 2nM. Table 1. SRIF Antagonist IC50s (nM) against U-II Stimulation of Rat Aorta Phasic Contractions

Row | Molecule | IC50 [nM]
9 | CC(C)(C)[C@@H]1NC(=O)[C@H](CCCCN)NC(=O)[C@@H](Cc2c[nH]c3ccccc23)NC(=O)[C@H](Cc2cccnc2)NC(=O)[C@H](NC(=O)[C@@H](N)Cc2ccc(F)cc2)CSSC[C@@H](C(=O)N[C@@H](Cc2ccc3ccccc3c2)C(N)=O)NC1=O [4Fpa-D-Cys-Pal-D-Trp-Lys-Tle-Cys-Nal-NH2] (H-[Phe(4-F)][dC][3Pal][dW]K[Tle]C[2Nal]-NH2; disulfide 2-7; N-terminus assumed) | 100
10 | CC(C)[C@@H]1NC(=O)[C@H](CCCCN)NC(=O)[C@@H](Cc2c[nH]c3ccccc23)NC(=O)[C@H](Cc2cccnc2)NC(=O)[C@H](NC(=O)[C@@H](N)Cc2ccc(F)cc2)CSSC[C@@H](C(=O)N[C@@H](Cc2ccc3ccccc3c2)C(N)=O)NC1=O [4Fpa-D-Cys-Pal-D-Trp-Lys-Val-Cys-Nal-NH2] (H-[Phe(4-F)][dC][3Pal][dW]KVC[2Nal]-NH2; disulfide 2-7; N-terminus assumed) | 1090
11 | CC(C)(C)[C@@H]1NC(=O)[C@H](CCCCN)NC(=O)[C@@H](Cc2c[nH]c3ccccc23)NC(=O)[C@H](Cc2cccnc2)NC(=O)[C@H](NC(=O)[C@@H](N)Cc2ccc(Cl)cc2)CSSC[C@@H](C(=O)N[C@@H](Cc2ccc3ccccc3c2)C(N)=O)NC1=O [Cpa-D-Cys-Pal-D-Trp-Lys-Tie-Cys-Nal-NH2] (H-[Phe(4-Cl)][dC][3Pal][dW]K[Tle]C[2Nal]-NH2; disulfide 2-7; N-terminus assumed) | 10
12 | C[C@@H](O)[C@@H]1NC(=O)[C@H](CCCCN)NC(=O)[C@H](Cc2c[nH]c3ccccc23)NC(=O)[C@H](Cc2cccnc2)NC(=O)[C@H](NC(=O)[C@@H](N)Cc2ccc(Cl)cc2)CSSC[C@@H](C(=O)N[C@@H](Cc2ccc(Cl)cc2)C(N)=O)NC1=O [Cpa-D-Cys-Pal-Trp-Lys-Thr-Cys-Cpa-NH2] | 2
13 | C[C@@H](O)[C@@H]1NC(=O)[C@H](CCCCN)NC(=O)[C@@H](Cc2c[nH]c3ccccc23)NC(=O)[C@H](Cc2ccc(O)cc2)NC(=O)[C@H](NC(=O)[C@@H](N)Cc2ccc(Cl)cc2)CSSC[C@@H](C(=O)N[C@@H](Cc2ccc3ccccc3c2)C(N)=O)NC1=O [Cpa-D-Cys-Tyr-D-Trp-Lys-Thr-Cys-Nal-NH2] (H-[Phe(4-Cl)][dC]Y[dW]KTC[2Nal]-NH2; disulfide 2-7; N-terminus assumed) | 12
14 | CC(C)[C@@H]1NC(=O)[C@H](CCCCN)NC(=O)[C@@H](Cc2c[nH]c3ccccc23)NC(=O)[C@H](Cc2cccnc2)NC(=O)[C@H](NC(=O)[C@@H](N)Cc2ccc(Cl)cc2)CSSC[C@@H](C(=O)N[C@@H](Cc2ccc(Cl)cc2)C(N)=O)NC1=O [Cpa-c[D-Cys-Pal-D-Trp-Lys-Val-Cys]-Cpa-amide] (H-[Phe(4-Cl)][dC][3Pal][dW]KVC[Phe(4-Cl)]-NH2; disulfide 2-7) | ~100
15 | CC(C)[C@@H]1NC(=O)[C@H](CCCCN)NC(=O)[C@@H](Cc2c[nH]c3ccccc23)NC(=O)[C@H](Cc2c[nH]cn2)NC(=O)[C@H](NC(=O)[C@@H](N)Cc2ccc3ccccc3c2)CSSC[C@@H](C(=O)N[C@@H](C(N)=O)C(c2ccccc2)c2ccccc2)NC1=O [Nal-D-Cys-His-D-Trp-Lys-Val-Cys-D-Dip-NH2] (H-[2Nal][dC]H[dW]KVC[dDip]-NH2; disulfide 2-7; N-terminus assumed) | 1800

Target: T2, U-II receptors
Assay: Binding to U-II receptors (rat aorta tissue)
Details: unit inferred

Row | Molecule | Kd [nM]
16 | CC(C)[C@@H]1NC(=O)[C@H](CCCCN)NC(=O)[C@@H](Cc2c[nH]c3ccccc23)NC(=O)[C@H](Cc2cccnc2)NC(=O)[C@H](NC(=O)[C@@H](N)Cc2ccc(Cl)cc2)CSSC[C@@H](C(=O)N[C@@H](Cc2ccc(Cl)cc2)C(N)=O)NC1=O [Cpa-c[D-Cys-Pal-D-Trp-Lys-Val-Cys]-Cpa-amide] (H-[Phe(4-Cl)][dC][3Pal][dW]KVC[Phe(4-Cl)]-NH2; disulfide 2-7) | 240
